Measurements: patent publication US7521540B2, “CYR61 compositions and methods” (Munin Corporation, priority 1996, dated 2009)

How the values were obtained:
[1] = Sensitivity of Cyr61 cell-attachment activity to DTT, heat, acid and protease; format: physicochemical
Description: Because murine Cyr61 contains 38 cysteines in the 355 amino acid secreted portion, the contribution of disulfide bond formation to Cyr61 tertiary structure was investigated. […] However, Cyr61 was inactivated by heating at 75° C. for 5 minutes, by incubation in 100 mM HCl, or upon extensive digestion with chymotrypsin. […] In addition, Cyr61 is neither phosphorylated nor glycosylated.
(§1) Another embodiment of the invention is directed to the use of Cyr61 to mediate cellular attachment to the extracellular matrix. Induction of cellular adhesion was investigated using murine Cyr61, fibronectin, and bovine serum albumin (BSA). Immunological 96-well plates (Falcon brand) were coated with 50 μl of 0.1% BSA in PBS at 4° C. in the presence of 0-30 μg/ml concentrations of murine Cyr61 or fibronectin. After two hours exposure to the coating solution, non-diluted immune or pre-immune antisera (30 μl/well), or affinity-purified anti-Cyr61 antibodies were added. For some wells, the coating mixture was adjusted to 10 mM DTT or 100 mM HCl. After 16 hours incubation, the coating solution was removed and the well surface was blocked with 1% BSA in phosphate-buffered saline (PBS) for 1 hour at room temperature. HUVE cells were plated in Ham's complete F12K medium [GIBCO-BRL, Inc.; Ham, Proc. Natl. Acacd. Sci. (USA) 53:786 (1965)] at 5×10^3-10^4 cells/well. Cycloheximide was added to 100 μg/ml immediately before plating and monensin was added to 1 μM 14 hours before plating. After a 2-hour incubation at 37° C., the wells were washed with PBS and attached cells were fixed and stained with methylene blue. The attachment efficiency was determined by quantitative dye extraction and measurement of the extract absorbance at 650 nm. Oliver et al., J. Cell. Sci. 92:513-518 (1989).

[2] = test system: HUVE cells; assay: HUVE cell attachment to murine Cyr61-coated plates; format: cell-based, human
Description: as §1

[3] = test system: HUVE cells; assay: Cell spreading assay; format: cell-based, human; details: dishes coated with 10 μg/ml, 2 hours
Description: In another embodiment of the invention, the effect of murine Cyr61 on cell morphogenesis was assessed by a cell spreading assay. Polystyrene Petri dishes were coated with 2 ml of a 10 μg/ml solution of Cyr61 or fibronectin in PBS with 0.1% BSA and treated as described above. A third plate was treated with BSA and served as a control. Each dish received 7×10^6 cells and was incubated for 2 hours. Cell spreading was analyzed by microscopy at 100-fold magnification.

[4] = test system: NIH 3T3 cells; assay: Fibroblast chemotaxis, modified Boyden chamber; format: cell-based, mouse
Excerpt: Cyr61 also affects chondrocytes, e.g., […] involved in skeletal development. In particular, Cyr61 influences the development, and perhaps maintenance, of cartilage, in contrast to the variety of growth-related proteins that exclusively influence development and maintenance of the bony skeleton. The chemotactic response of NIH 3T3 cells to murine Cyr61 was examined using a modified Boyden chamber (Neuroprobe Inc., catalog no. AP48). Grotendorst, Meth. Enzymol. 147:144-152 (1987). Purified Cyr61 protein was serially diluted in DMEM containing bovine serum albumin (BSA; 0.2 mg/ml) and added to the lower well of the chamber. The lower well was then covered with a collagen-coated polycarbonate filter (8 μm pore diameter; Nucleopore Corp., Pleasanton, Calif.). Cells (6×10^4) were then loaded into the upper well. After 5 hours incubation (10% CO2, 37° C.), the filter was removed and the cells were fixed and stained using Wright-Giemsa stain (Harleco formulation; EM Diagnostic Systems, Gibbstown, N.J.). Cells from the upper surface of the filter were then removed by wiping with a tissue swab. The chemotactic response was determined by counting the total number of migrating cells detected in ten randomly selected high-power microscopic fields (400-fold magnification) on the lower surface of the filter. Duplicate trials were performed for each experiment and the experiment was repeated three times to ensure reproducibility of the data.

[5] = test system: Focal Adhesion Kinase; assay: Focal adhesion induction; format: cell-based
Excerpt: In addition, Cyr61 induces focal adhesion, i.e., cell surface foci for cytoskeletal attachments. Focal adhesion is effected by cell surface protein complexes or clusters. These protein clusters are complex, including a variety of receptors from the integrin family, and a variety of protein kinases. The induction of focal adhesion by Cyr61 is reflected in the capacity of Cyr61 to induce particular members of these cell surface protein clusters. […] Moreover, indirect immunofluorescence studies have shown that Cyr61 is bound to a receptor (see above) in focal adhesive plaques. The plaques, in turn, are characteristic of focal adhesion protein complexes. Focal Adhesion Kinase, Paxillin, and αVβ3 Integrin are co-localized to the focal adhesion plaques produced by focal adhesion complex formation induced by Cyr61. These focal adhesion protein complexes bind Cyr61 at the cell surface; the complexes also attach internally to the cytoskeleton. Therefore, murine Cyr61, and human Cyr61 (see below), are, in part, adhesion molecules, a characteristic distinguishing Cyr61 from conventional growth factors. […] Subsequently, bound Cyr61 is detected, e.g., by anti-Cyr61 antibody that is labeled using techniques known in the art, such as radiolabelling, fluorescent labeling, or the use of enzymes catalyzing calorimetric reactions. […]

B1: Cyr61: Cysteine-rich ECM signaling protein; murine sequence SEQ ID NO:2, recombinant from Baculovirus-infected Sf9 cells (protein, listed as Mus musculus)
chain: MSSSTFRTLAVAVTLLHLTRLALSTCPAACHCPLEAPKCAPGVGLVRDGCGCCKVCAKQLNEDCSKTQPCDHTKGLECNFGASSTALKGICRAQSEGRPCEYNSRIYQNGESFQPNCKHQCTCIDGAVGCIPLCPQELSLPNLGCPNPRLVKVSGQCCEEWVCDEDSIKDSLDDQDDLLGLDASEVELTRNNELIAIGKGSSLKRLPVFGTEPRVLFNPLHAHGQKCIVQTTSWSQCSKSCGTGISTRVTNDNPECRLVKETRICEVRPCGQPVYSSLKKGKKCSKTKKSPEPVRFTYAGCSSVKKYRPKYCGSCVDGRCCTPLQTRTVKMRFRCEDGEMFSKNVMMIQSCKCNYNCPHPNEASFRLYSLFNDIHKFRD
- ability to mediate cell attachment after treatment ([1]; 10 mM dithiothreitol (DTT), 16 hours): did not affect the ability of Cyr61 to mediate cell attachment
- activity after heating ([1]; 75° C. for 5 minutes): inactivated
- activity after protease ([1]; extensive digestion with chymotrypsin): inactivated
- activity after acid ([1]; incubation in 100 mM HCl): inactivated
- HUVE cell attachment, A650 ([2]; coating 1 μg/ml): 0.1 A650
- HUVE cell attachment, A650 ([2]; coating 30 μg/ml): 0.8 A650
- HUVE cell spreading [3]: induces HUVE cell spreading to approximately the same extent as fibronectin
- optimal concentration for the chemotactic activity [4]: 1 to 5 µg/mL
- migrating cells per high-power field ([4]; 0.5 μg/ml): about 5.2 cells
- average number of migrating cells detected per field ([4]; 1 μg/ml): 7.5 cells
- average number of migrating cells detected per field ([4]; 5 μg/ml): 18.5 cells
- average number of migrating cells detected per field ([4]; 10 μg/ml): 18.7 cells
- phosphorylation of focal adhesion proteins [5]: induces the phosphorylation of Focal Adhesion Kinase
